Sequences and labels used below:
B1: 9A6 (antibody, V domains shown)
VH: EVQLVQPGAELRNPGASVKVSCKASGYTYTSAYIVWVRQAPGEGLEWMGRIDPEDGGTKYAQKFQGRVTFTADTSTNTAYVELSSLRSDDTAVYYCTAGLDYWGKGTLVTVSS
VL: ATMLTQSPGSLSVVPGESASISCKASQSLVHSDGMTYLYWLQQKPGQSPQRLIYRVSRRGSGVPDRFTGSGSGTDFTLNISDMKAEDAGVYYCAQDTYYPYSFGSGTSVEIK
B2: scFv A4 (scFv)
chain: QLQVVESGGGLVQPGGSLRLSCAASGFTFDSYWMYWVRQAPGKGLEWLSAINPGGGMTYYADSVKGRFTIARDNAKNTVYLQMNSLKSEDTAVYYCAKELRGSYYYISSEYDYWGQGTQVTVSSLPVLTQPPSVSGTLGKTVTISCAGTSSDIGDYNYVSWYQQLPGTAPKLLIYKVSTRASGIPDRFSGSKSGNTASLTISGLQSEDEADYYCASYRTSNNVVFGGGTHLTVLG
B3: scFv C1 (scFv)
chain: ELQVVESGGGLVPGGSLRLSCAASGFRVSVNAMSWVRQAPGKGLEWVSHIGSGGITGYADSVKGRFTISRDSAKNTLYLQMNSLKPEDTAVYYCTKRSSGYAWGQGTQVTVSSQAGLTQLPSVSGSPGQKITISCTGSSNNIGAGYSVQWFQQVPGSPPRLLIDGATNRDSGVPDRFSDSRSGSSASLTITGLQAEDEADYYCECYDNSLRGAVFGGGTHLTVLG
B4: scFv C2 (scFv)
chain: QLQLVESGGGLQQPGGSLRLSCAASGFTFSSYAMGWVRQAPGKGLEWISIILNDGHRTYYTDSVKGRFTISRDNAKDTLSLQMNSLKPEDTAVYFCVKYVLNWAISDWGQGTQVTVSSQSVLTQPPSVSGSPGKTVTISCAGTSSDVGYGNYVSWYQQLPGMAPKLLIYNANKRASGITDRFSASKSGNTASLTISGLQSGDEAVYYCASYRYRDNAVFGGGTHLTVLG
B5: scFv A5 (scFv)
chain: ELQLVESGGGLVQPGGSLRLSCAASGSTFSTAAMSWVRQAPGKGLEWVSAISSFGASTSYADSVKGRFTISRDIAKNTLYLQMNSLKPEDAAVYYCANVGLHPSWGFTSGFWGQGTQVTVSSSSALTQPPSVSGSPGKTVTISCAGTSSDVGYGNYVSWYQQLPGMAPKLLIHDVNKRASGITDRFSGSKSGNTASLTISGLQSEDEADYYCASYRRRNEVVFGGGTHLTVLG
B6: scFv B8 (scFv)
chain: QVQLVESGGGLVQPGGSLRLSCATSGFTFSNYYMSWVRQAPGKGPEWVSSIYSDLSTTYYADSVKGRFTISRDRAKNTLYLQMNSLKSEDTAVYYCARLSTVAGMDYWGKGTLVTVSSSYELTQSPSVSVALRQTAKITCGGTNIGSKSAQWYQQKPGQAPMLVIYGDSRRPSGIPERFSGSNSGNTATLTISGAQAEDEADYYCQVWDSSANAAVFGGGTHLTVLG
B7: scFv C5 (scFv)
chain: QLQLVESGGGLVEPGGSLRLSCAASGFTFSNYYMSWVRQAPGKGPEWVSSIYSDLSTTYYADSVKGRFTISRDRAKNTLYLQMNSLKSEDTAVYYCARLSTVAGVDYWGKGTLVTVSSSYELTQSPSVSVALRQTAKITCGGNNIGSKSAQWYQQKPGQAPVLVIYADSRRPSGIPERFSGSNSGNTATLTISGAQAEDEADYYCQVWDSSSNGAVFGGGTHLTVLG
B8: scFv D7 (scFv)
chain: QVQLVESGGGLVQPGGSLRLSCAASGFTFSWYAMSWVRQGPGKGLEWVSAINGGGGSTSYEDSVKGRFTISRDNAKNTLYLEMNSLKPEDTAVYYCARYSDGYSGSYTYTDMDYWGKGTLVTVSSQAVVTQEPSLSVSPGGTVTLTCGLSSGSVTSSNYPVWYQQTPGQAPHLLIYNTNTRHSGVPSRFSGFISGNKAALTITGAQPEDEADYYCASYRRSGRAVFGGGTHLTVLG
B9: scFv D8 (scFv)
chain: EVQLVESEGGSVQPGDSLRLSCAASGFSFSNAGMSWVRQAPGKGLEWVSAIIPGGYAPYYADSVKGRFTISRDNAKNTVSLQMNSLKPEDTALYYCAKYGGNWDLEVWGQGTLVTVSSQSALTQPPSVSGTLGKTVTISCTGTSSDIGGYNSVSWYQQLPGTAPKLLIYEVNKRASGIPDRFSGSKSGDTASLTISGLQSADEADYYCASYRNTRKSVFGGGTHLTVLG
B10: scFv D6 (scFv, part only; not given: GS linker, not shown: small tags and cut ends)
scFv, part: QLQLVESGGGLVQPGGSLRLSCAASGGIFDVMGWYHQAPGKQRGLVASITPAGSTNYADSVKGRFTISRDNAKNTVYLQMNSLKPDDTGVYYCYADGIDPRYGGDEFWGQGTQVTVSSSYELTQSPSVSVALRQTAKITCGGDNIGSKSAQWYQQKPGQAPVLVIYAGSRRPSGIPERFSGSNSGNTATLTVSGAQAEDEANYSCQVWDSSANASVFGGGTHLTVLG
B11: scFv C4 (scFv)
chain: QVQLQESGPGLVKPSQTLSLTCTVSGGSITTNYYYWSWIRQPPGKGLEWMGAIAYSGSTYYSPSLKSRTSISRDTSKNQFTLQLSSVTPEDTAVYYCARGYYSGSSLDFGSWGQGTQVTVSSLPVLTQPSAVSVSLGQTARITCQGGNVGSYYTSWYQQKPGQAPVLVIYKDSERPSGIPERFSGSSSGNTATLTVSGAQAEDEGDYYCQVWDSSAAVFGGGTHLTVLG
B12: scFv B5 (scFv, part only; not given: GS linker, not shown: small tags and cut ends)
scFv, part: EVQLVQPGAELRNPGASVKVSCKASGYTFTSHYIDWVRQAPGQGLEWMGRIDPEDGGTTYEQKFQGRVTFTADTSTSTVYVELSSLRSEDTAVYYCARSTEIPTIRYYGMDYWGKGTPVTVSSQSVLTQPSAVSVSLGQTARITCQGGSLGSYGANWHQQKPGQAPVLLIYGDNSRPSGIPERFSGSKSGGTATLTISGAQAEDEADYYCQSFDYSGNAVFGGGTHLTVLG
B13: scFv B4 (scFv)
chain: EVQVQESGPGLVKPSQTLSLTCTVSGGSITTDYSYWSWIRQPPGKGLEWMGAIAFSDTTYYSPSLKSRTSISRDTSKNQFTLQLSSVTPEDTAVYYCARLSTVAGMDYWGKGTLVTVSSASAAASGSYELTQSPSVSVALRQTAKITCGGNNIGSKSAQWYQQKPGQAPVLVIYADNRRPSEIPERFSGSNSGDTATLTISGAQAEDEADYYCQVWDSSANAAVFGGGTHLTVLG
B14: scFv B2 (scFv)
chain: EVQLQESGGGLVQPGGSLRLSCATSGFTFSNYYMSWVRQAPGKGPEWVSSIYSDLSTTYYADSVKGRFTISRDRAKNTLSLQMNSLKSEDTAVYYCARLSTVAGVDYWGKGTLVTVSSSYELTQSPSVSVALRQTAKITCGGNNIGSKSAQWYQQKPGQAPVLVIYADSRRPSGIPERFSGSNSGNTATLTISGAQAEDEADYYCQVWDSSAAVFGGGTHLTVLG
B15: scFv C12 (scFv, part only; not given: GS linker, not shown: small tags and cut ends)
scFv, part: ELQVVESGGGLVPGGSLRLSCAASGFRVSVNAMSWVRQAPGKGLEWVSHIGSGGITGYADSVKGRFTISRDSAKNTLYLQMNSLKPEDTAVYYCTKRSSGYAWGQGTQVTVSSQAGLTQLPSVSGSPGQKITISCTGSSNNIGAGYSVQWFQQVPGSPPRLLIDGATNRDSGVPDRFSDSRSGSSASLTITGLQAEDEADYYWMLQQPQGVLCSAEGPI
B16: scFv A8 (scFv)
chain: EVQVQESGPGLVKPSQTLSLTCTVSGESITTNYYYWNWIRQPPGKALEWMGAIGDSGTTWYNPSLKSRTSISRDTSKNQFTLQLISVTPEDTAVYYCARGFYDGSSLDFASWGQGTQVTVSSLSYELTQSPSVSVALRQAAKITCGGNNIASKFVNWYQQKPGQAPILVISKDTNRPSGIPERFSGSNSGNTATLTVSGAQAEDEADYYCQVWDGSAAVFGGGTHLTVLG
B17: scFv D5 (scFv)
chain: EVQVQESGGGLVQPGGSLRLSCATSGFTFSNYYMSWVRQAPGKGPEWVSSIYSDLSTTYYADSVKGRFTISRDRAKNTLYLQMNSLKSEDTAVYYCARLSTVAGVDYWGKGTLVTVSSSYELTQSPSVSVALRQTAKITCGGNNIGDKSAQWYQQKPDQAPVLVIYADNRRPSEIPERFSGSNSGDTATLTISGAQAEDEADYYCQVWDSGANAAVFGGGTHLTVLG
B18: scFv A7 (scFv)
chain: QLQVVESGGGLVQPGGSLRLSCATSGFTFSNYYMSWVRQAPGKGPEWVSSIYSDLSTTYYADSVKGRFTISRDRAKNTLYLQMNSLKSEDTAVYYCARLSTVAGVDYWGKGTLVTVSSSYELTQSPSVSVALRQTAKITCGGNNIGSKSAQWYQQKPGQAPVLVIYADSRRPSGIPEKFSGSNSGNTATLTISGAQAEDEADYYCQVWDSSANAAVFGGGTHLTVLG
B19: scFv C3 (scFv)
chain: QVQRQESGGGLVQPGGSLRLSCATSGFTFSNYYMSWVRQAPGKGPEWVSSIYSDLSTTYYADSVKGRFTISRDRAKNTLYLQMNSLKSEDTAVYYCARLSTVAGVDYWGKGTLVTVSSSYELTQSPSVSVALRQTAKITCGGNNIGSKSAQWYQQKPGQAPVLVIYADVRRPSEIPERFSGSNSGNTATLSVSGAQAEDEADYYCQVWDSSANAAVFGGGTHLTVLG
B20: scFv A1 (scFv)
chain: QVQLVESGGGLVQPGGSLRLSCAASGFTFSSYAMTWVRQAPGKGLEWVSTITSNGDSTSYADSVKGRFTISRDNAKNTLYLQMDSLKPEDTAVYYCAKLGDGSYWFYYYGMDYWGQGTQVTVTSSSYELTQSSAVSLSLGQTARITCQGDNLGRYYVNWYQQKPGQAPVQVIYGNSNRPSGIPERFSGSSSGGTATLTISGAQAEDEADYYCQTYENSGVNLVFGGGTKLTVLG

We go through 20 molecules from patent publication US20160207996A1 (ARGEN X N V, published 2016).

The target in the first experiment is human Nav1.7 (full length) (human) (UniProt Q15858). The experiment can be described thus: cell-based or functional assay.
Molecule B1 registered a % inhibition of inward current following P02 voltage protocol, 10 µg/ml of 16.9%; a % inhibition of inward current following P02 voltage protocol, 25 µg/ml of 28%; a % inhibition of inward current following P02 voltage protocol, 100 µg/ml of 36.2%.

The target in a further experiment is T1, Nt-GCGR-hFc (human, UniProt P47871 26-136).
T1 construct: domain: N-terminal domain; also called Nt-GCGR-Fc; recombinant N-terminal domain of GCGR; not shown: hFc
T1 sequence (P47871 26-136): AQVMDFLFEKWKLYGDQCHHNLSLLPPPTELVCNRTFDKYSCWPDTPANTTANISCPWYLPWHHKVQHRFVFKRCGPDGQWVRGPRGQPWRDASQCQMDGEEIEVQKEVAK
The experiment can be described thus: scFv binding ELISA, periplasmic extract on coated Nt-GCGR. (In general: An ELISA detects its analyte on a solid surface through an enzyme-linked reagent.)
In the case of B2, the “ScFv binding ELISA signal” value turned out to be 0.342.
Consider B3, for which the “ScFv binding ELISA signal” value turned out to be 1.54.
Take B4: the “ScFv binding ELISA signal” value turned out to be 0.465.
On to B5, for which the “ScFv binding ELISA signal” value stood at 1.31.
As to B6, the “ScFv binding ELISA signal” value amounted to 0.205.
On the same count and under the same terms, the same measure for B7: 1.88.
Take B8: the “ScFv binding ELISA signal” value came to 0.1.
Turning to B9, the “ScFv binding ELISA signal” value worked out at 1.14.
Turning to B10, the ScFv binding ELISA signal was 1.09.
B11: the “ScFv binding ELISA signal” value stood at 0.274.
With B12, the ScFv binding ELISA signal was found to be 0.508.
Same read-out and setting: the same measure for B13: 0.476.
For B14, the “ScFv binding ELISA signal” value was 0.137.
On the same count and under the same terms, as for B15, the figure is 2.56; as for B16, 1.7.
Consider B17, for which the “ScFv binding ELISA signal” value stood at 0.268.
In the case of B18, the “ScFv binding ELISA signal” value came out at 0.394.
Consider B19, for which the “ScFv binding ELISA signal” value was 0.058.
As for B20, the “ScFv binding ELISA signal” value was determined as 2.18.
